In article PMC4434759:

Target: PsIAA4 PB1^AM3 (D151A/D153A/D155A) (pea (Pisum sativum))
Experiment: ITC

“PsIAA4 PB1^BM3 (K96A/R106A/K107A) (domain or fragment)” showed a Kd of 6.4 µM and a stoichiometry N of 1.
